B1: 21993 (protein)
chain: MALPVTALLLPLALLLHAARPQLQLQESGPGLVKPSETLSLTCTVSGDSISSGDYYWGWIRQPPGKGLEWIGHIYYSGVTYYNPSLKSRVTISVDTSRNQFSLKLSSVTAADTAVYYCTREDSSNWRSRGQGTLVTVSSLEDLKNVFPPEVAVFEPSEAEISHTQKATLVCLATGFYPDHVELSWWVNGKEVHSGVCTDPQPLKEQPALNDSRYCLSSRLRVSATFWQNPRNHFRCQVQFYGLSENDEWTQDRAKPVTQIVSAEAWGRADCGFTSESYQQGVLSATILYEILLGKATLYAVLVSALVLMAMVKRKDSRGRAKRSGSGATNFSLLKQAGDVEENPGPTSMDWIWRILFLVGAATGAHSFEQLQLQESGPGLVKPSETLSLTCTVSGGSISSGDYYWGWIRQPPGKGLEWIGHIYYSGATYYNPSLKSRVTISVDTSRNQFSLKLSSVTAADTAVYYCTRDDSSNWRSRGQGTLVTVSSTRIQNPDPAVYQLRDSKSSDKSVCLFTDFDSQTNVSQSKDSDVYITDKCVLDMRSMDFKSNSAVAWSNKSDFACANAFNNSIIPEDTFFPSPESSCDVKLVEKSFETDTNLNFQNLSVIGFRILLLKVAGFNLLMTLRLWSSRAKRSGSGVKQTLNFDLLKLAGDVESNPGPSRGHMTEYKPTVRLATRDDVPRAVRTLAAAFADYPATRHTVDPDRHIERVTELQELFLTRVGLDIGKVWVADDGAAVAVWTTPESVEAGAVFAEIGPRMAELSGSRLAAQQQMEGLLAPHRPKEPAWFLATVGVSPDHQGKGLGSAVVLPGVEAAERAGVPAFLETSAPRNLPFYERLGFTVTADVEVPEGPRTWCMTRKPGA
B2: 22084 (protein)
chain: MALPVTALLLPLALLLHAARPQLQLQESGPGLVKPSETLSLTCTVSGDSISSGDYYWGWIRQPPGKGLEWIGHIYYSGVTYYNPSLKSRVTISVDTSRNQFSLKLSSVTAADTAVYYCTREDSSNWRSRGQGTLVTVSSLDSGGGGSFEQLQLQESGPGLVKPSETLSLTCTVSGGSISSGDYYWGWIRQPPGKGLEWIGHIYYSGATYYNPSLKSRVTISVDTSRNQFSLKLSSVTAADTAVYYCTRDDSSNWRSRGQGTLVTVSSTRDKTHTCPPCPAIPEDTFFPSPESSCDVKLVEKSFETDTNLNFQNLSVIGFRILLLKVAGFNLLMTLRLWSS
B3: 21995 (protein)
chain: MALPVTALLLPLALLLHAARPQLQLQESGPGLVKPSETLSLTCTVSGDSISSGDYYWGWIRQPPGKGLEWIGHIYYSGVTYYNPSLKSRVTISVDTSRNQFSLKLSSVTAADTAVYYCTREDSSNWRSRGQGTLVTVSSLEDLKNVFPPEVAVFEPSEAEISHTQKATLVCLATGFYPDHVELSWWVNGKEVHSGVCTDPQPLKEQPALNDSRYCLSSRLRVSATFWQNPRNHFRCQVQFYGLSENDEWTQDRAKPVTQIVSAEAWGRADCGFTSESYQQGVLSATILYEILLGKATLYAVLVSALVLMAMVKRKDSRGRAKRSGSGATNFSLLKQAGDVEENPGPTSMDWIWRILFLVGAATGAHSFEVQLLESGGGLVQPGGSLRLSCAASGFIFSIYAMSWVRQAPGKGLEWVSGISGSGVNTYYADSVKGRFIISRDNSRNTVYLQMNSLRADDTAVYHCANGKGWDGNTWYEDYRGQGTLVTVSSTRIQNPDPAVYQLRDSKSSDKSVCLFTDFDSQTNVSQSKDSDVYITDKCVLDMRSMDFKSNSAVAWSNKSDFACANAFNNSIIPEDTFFPSPESSCDVKLVEKSFETDTNLNFQNLSVIGFRILLLKVAGFNLLMTLRLWSSRAKRSGSGVKQTLNFDLLKLAGDVESNPGPSRGHMTEYKPTVRLATRDDVPRAVRTLAAAFADYPATRHTVDPDRHIERVTELQELFLTRVGLDIGKVWVADDGAAVAVWTTPESVEAGAVFAEIGPRMAELSGSRLAAQQQMEGLLAPHRPKEPAWFLATVGVSPDHQGKGLGSAVVLPGVEAAERAGVPAFLETSAPRNLPFYERLGFTVTADVEVPEGPRTWCMTRKPGA
B4: 22085 (protein)
chain: MALPVTALLLPLALLLHAARPQLQLQESGPGLVKPSETLSLTCTVSGDSISSGDYYWGWIRQPPGKGLEWIGHIYYSGVTYYNPSLKSRVTISVDTSRNQFSLKLSSVTAADTAVYYCTREDSSNWRSRGQGTLVTVSSLEGSGGGGSGGGGSGEDLKNVFPPEVAVFEPSEAEISHTQKATLVCLATGFYPDHVELSWWVNGKEVHSGVCTDPQPLKEQPALNDSRYCLSSRLRVSATFWQNPRNHFRCQVQFYGLSENDEWTQDRAKPVTQIVSAEAWGRADCGFTSESYQQGVLSATILYEILLGKATLYAVLVSALVLMAMVKRKDSRGRAKRSGSGATNFSLLKQAGDVEENPGPTSMDWIWRILFLVGAATGAHSFEVQLLESGGGLIQPGGSLRLSCAASGFTFSSHAMTWVRQAPGKGLEWVSAISGSGDYTHYADSVKGRFTISRDNSKNTVYLQMNSLRAEDSAVYYCAKDEDGGSLLGHRGQGTLVTVSSTRGSIPEDTFFPSPESSCDVKLVEKSFETDTNLNFQNLSVIGFRILLLKVAGFNLLMTLRLWSS
B5: SEQ ID NO: 22254: bispecific SAR on CD19 targeted SIR backbone comprising the receptor binding domain of the ligand APRIL (protein)
chain: MALPVTALLLPLALLLHAARPACVLHLVPINATSKDDSDVTEVMWQPALRRGRGLQAQGYGVRIQDAGVYLLYSQVLFQDVTFTMGQVVSREGQGRQETLFRCIRSMPSHPDRAYNSCYSAGVFHLHQGDILSVIIPRARAKLNLSPHGTFLGFVKLGTGGGGSGGGGSGGGGSEFDIQMTQSPSSLSASVGDRVTITCKASDHINNWLAWYQQKPGQAPKLLIYGATTLETGVPSRFSGSGSGTDYTLTISSLQPEDFATYYCQQSWNTPWTFGQGTKLEIKRLEDLKNVFPPEVAVFEPSEAEISHTQKATLVCLATGFYPDHVELSWWVNGKEVHSGVCTDPQPLKEQPALNDSRYCLSSRLRVSATFWQNPRNHFRCQVQFYGLSENDEWTQDRAKPVTQIVSAEAWGRADCGFTSESYQQGVLSATILYEILLGKATLYAVLVSALVLMAMVKRKDSRGRAKRSGSGATNFSLLKQAGDVEENPGPTSATMDWIWRILFLVGAATGAHSGPEVQLVESGGGLVQAGGSLRLSCAASGRTFSMGWFRQAPGKEREFVAAITYSGGSPYYADSVKGRFTISRDNAKNTVYLQMNSLKPEDTAVYYCAANPTYGSDWNAENWGQGTQVTVSSGSGGGGSGGGGSGGGGSFEQVQLQQPGAELVKPGASVKMSCKASGYAFSSYWINWMKQKPGQGLEWIGQIYPGDGDTNYNGKFKGRATLTADTSSSTAYMQLSSLTSEDSAVYFCARSITTVVGCAMDYWGQGTSVTVSSTRIQNPDPAVYQLRDSKSSDKSVCLFTDFDSQTNVSQSKDSDVYITDKCVLDMRSMDFKSNSAVAWSNKSDFACANAFNNSIIPEDTFFPSPESSCDVKLVEKSFETDTNLNFQNLSVIGFRILLLKVAGFNLLMTLRLWSSRAKRSGSGVKQTLNFDLLKLAGDVESNPGPSRGHMTEYKPTVRLATRDDVPRAVRTLAAAFADYPATRHTVDPDRHIERVTELQELFLTRVGLDIGKVWVADDGAAVAVWTTPESVEAGAVFAEIGPRMAELSGSRLAAQQQMEGLLAPHRPKEPAWFLATVGVSPDHQGKGLGSAVVLPGVEAAERAGVPAFLETSAPRNLPFYERLGFTVTADVEVPEGPRTWCMTRKPGA
B6: 22001 (protein)
chain: MALPVTALLLPLALLLHAARPQLQLQESGPGLVKPSETLSLTCTVSGDSISSGDYYWGWIRQPPGKGLEWIGHIYYSGVTYYNPSLKSRVTISVDTSRNQFSLKLSSVTAADTAVYYCTREDSSNWRSRGQGTLVTVSSLEPGGGGSPEDLKNVFPPEVAVFEPSEAEISHTQKATLVCLATGFYPDHVELSWWVNGKEVHSGVCTDPQPLKEQPALNDSRYCLSSRLRVSATFWQNPRNHFRCQVQFYGLSENDEWTQDRAKPVTQIVSAEAWGRADCGFTSESYQQGVLSATILYEILLGKATLYAVLVSALVLMAMVKRKDSRGRAKRSGSGATNFSLLKQAGDVEENPGPTSMDWIWRILFLVGAATGAHSFEVQLLESGGGLIQPGGSLRLSCAASGFTFSSHAMTWVRQAPGKGLEWVSAISGSGDYTHYADSVKGRFTISRDNSKNTVYLQMNSLRAEDSAVYYCAKDEDGGSLLGHRGQGTLVTVSSTRIQNPDPAVYQLRDSKSSDKSVCLFTDFDSQTNVSQSKDSDVYITDKCVLDMRSMDFKSNSAVAWSNKSDFACANAFNNSIIPEDTFFPSPESSCDVKLVEKSFETDTNLNFQNLSVIGFRILLLKVAGFNLLMTLRLWSSRAKRSGSGVKQTLNFDLLKLAGDVESNPGPSRGHMTEYKPTVRLATRDDVPRAVRTLAAAFADYPATRHTVDPDRHIERVTELQELFLTRVGLDIGKVWVADDGAAVAVWTTPESVEAGAVFAEIGPRMAELSGSRLAAQQQMEGLLAPHRPKEPAWFLATVGVSPDHQGKGLGSAVVLPGVEAAERAGVPAFLETSAPRNLPFYERLGFTVTADVEVPEGPRTWCMTRKPGA

System: RAJI cells
Experiment: JNG assay, co-culture with RAJI cells
Type: cell-based
Conditions: for NFAT-GFP ASSAY: Raji: JNG cells expressing construct, co-culture with Raji
Protocol: Cellular supernatant is collected and assayed for the induction of cytokines (e.g., IL2).
JNG (Jurkat cells expressing EGFP under an NFAT promoter) were infected with lentiviral vectors encoding different single chain and multi-chain SARs by spinfection in the presence of 8 µg/ml of Polybrene® (Sigma, Catalog no. H9268). The Jurkat-NFAT-GFP cells are engineered in such a way that the IL-2 promoter, which carries NFAT binding sites, is cloned upstream of the GFP gene. These cells have been used to study signaling via TCR and CAR. The different SARs were stably expressed in Jurkat NFAT-GFP cells by lentiviral mediated gene transfer, followed by selection with puromycin or blasticidin. No drug selection was used in case the construct lacked an antibiotic resistance gene. The SAR-expressing Jurkat-NFAT-GFP cells were cocultured with the target cells at E:T ratio of approximately 1:2 for approximately 4 hours to 18 hours. When the interaction between SIRs and their target antigen results in activation of the NFAT pathway, GFP expression is induced. […] GFP expression was monitored by FACS analysis. The Jurkat-NFAT-GFP (parental) cells were used as control. The structure of different constructs can be determined based on their names. […] The sequence of the other constructs in the table can be similarly determined from their names and by referring to the different Tables of this disclosure that provide the names and SEQ ID NO of the different modules. Alternatively, the composition and modular architecture of the different SAR constructs can be determined from their sequences by bioinformatics tools, including using nucleic acid and amino acids homology searches. A SAR is considered positive in the assay in case the SAR expressing Jurkat-NFAT-GFP cells show greater % GFP positive cells when cultured with the target cell line as compared to parental Jurkat-NFAT-GFP cells. […] In general, the number +/-, +, 2+, 3+, 4+, 5+ refer to approximately 5%, 10%, 20%, 30%, 40% and 50% GFP positive cells. The % of GFP induction in the above assay is dependent not only the relative strength of the SAR but also, among other factors, on the relative level of expression of the SAR in the JNG cells and the relative level of expression of the target antigen in the target cell line. To control for the difference in gene transduction efficiency of the different SAR constructs, the experiment was conducted with JNG cells transduced with SAR constructs co-expressing a drug resistance gene (e.g., puromycin or PAC) followed by drug selection to generate a stable population of SAR-expressing cells. It is to be noted that the drug resistance gene (e.g., PAC) in the SAR constructs is optional and in vivo studies were conducted with SAR constructs lacking the PAC gene.

| Molecule | NFAT-GFP ASSAY: Raji | GFP induction / activity (co-culture with RAJI cells) |
| --- | --- | --- |
| B1 | Raji (+/-) (refer to approximately 5%, 10%, 20%, 30%, 40% and 50% GFP positive cells) |  |
| B2 | +/- (refer to approximately 5%, 10%, 20%, 30%, 40% and 50% GFP positive cells) |  |
| B3 | + (refer to approximately 5%, 10%, 20%, 30%, 40% and 50% GFP positive cells) |  |
| B4 | +/- (refer to approximately 5%, 10%, 20%, 30%, 40% and 50% GFP positive cells) |  |
| B5 |  | retained the ability to respond |
| B6 | +/- (refer to approximately 5%, 10%, 20%, 30%, 40% and 50% GFP positive cells) |  |
